In paper PMC8580805 (Biophysical Reviews, 2021):
Several values for one entry are separate records, joined by “and”; a condition that tells them apart may be missing. Equal entries are not always repeated. One block for each molecule: values may come before it.

B3: photosynthetic GAPDH B-subunit from spinach (natural protein, UniProt P12860 84-451, looked up)
chain: KLKVAINGFGRIGRNFLRCWHGRKDSPLDVVVVNDSGGVKSATHLLKYDSILGTFKADVKIIDNETFSIDGKPIKVVSNRDPLKLPWAELGIDIVIEGTGVFVDGPGAGKHIQAGAKKVIITAPAKGSDIPTYVVGVNEKDYGHDVANIISNASCTTNCLAPFVKVLDEELGIVKGTMTTTHSYTGDQRLLDASHRDLRRARAAALNIVPTSTGAAKAVSLVLPQLKGKLNGIALRVPTPNVSVVDLVVNIEKVGVTAEDVNNAFRKAAAGPLKGVLDVCDIPLVSVDFRCSDFSSTIDSSLTMVMGGDMVKVVAWYDNEWGYSQRVVDLADLVANKWPGLEGSVASGDPLEDFCKDNPADEECKLYE

Columns and labels:
[1] = target: insect Toll receptor ectodomain (insect (species not stated)) (UniProt P08953); test: biophysical and cellular analysis
insect Toll receptor ectodomain (insect (species not stated)), sequence (P08953 28-807): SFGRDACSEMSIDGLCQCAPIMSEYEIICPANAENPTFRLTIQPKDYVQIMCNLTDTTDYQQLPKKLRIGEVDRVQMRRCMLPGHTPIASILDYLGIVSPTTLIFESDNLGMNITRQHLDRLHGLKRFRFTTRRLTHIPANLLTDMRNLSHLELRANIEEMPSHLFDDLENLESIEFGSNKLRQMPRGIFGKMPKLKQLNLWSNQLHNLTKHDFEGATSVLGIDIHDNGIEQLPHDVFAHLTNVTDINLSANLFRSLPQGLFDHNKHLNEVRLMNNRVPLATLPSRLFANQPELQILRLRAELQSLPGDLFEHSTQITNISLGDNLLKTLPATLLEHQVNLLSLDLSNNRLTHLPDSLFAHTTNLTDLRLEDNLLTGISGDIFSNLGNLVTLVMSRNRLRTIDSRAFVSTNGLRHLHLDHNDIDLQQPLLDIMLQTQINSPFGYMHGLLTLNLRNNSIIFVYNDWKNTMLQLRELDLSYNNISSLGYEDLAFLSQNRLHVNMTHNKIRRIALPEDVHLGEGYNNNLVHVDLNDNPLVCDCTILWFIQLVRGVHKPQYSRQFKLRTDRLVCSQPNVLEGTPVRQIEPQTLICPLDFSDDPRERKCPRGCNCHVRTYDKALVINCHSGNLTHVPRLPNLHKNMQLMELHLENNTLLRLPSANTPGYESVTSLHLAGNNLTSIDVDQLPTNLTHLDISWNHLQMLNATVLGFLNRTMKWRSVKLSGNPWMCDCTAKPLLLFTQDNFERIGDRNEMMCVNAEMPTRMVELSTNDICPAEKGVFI

[2] = target: the molecule itself; test: SEC-SAXS + cryo-EM structure
[3] = target: B3; test: cryo-EM structure
cryo-EM structure = target: the molecule itself; test: cryo-EM structure

stoichiometry N (Toll per Spatzle (2:2)) [1]: 1
Molecule: insect cytokine ligand Spatzle (from UniProt P48607 26-326)

B1: photosynthetic AB-GAPDH, A2B2 hetero-tetramer (glyceraldehyde 3-phosphate dehydrogenase) from spinach (complex)
chain 1: KLKVAINGFGRIGRNFLRCWHGRKDSPLDVVVINDTGGVKQASHLLKYDSILGTFDADVKTAGDSAISVDGKVIKVVSDRNPVNLPWGDMGIDLVIEGTGVFVDRDGAGKHLQAGAKKVLITAPGKGDIPTYVVGVNEEGYTHADTIISNASCTTNCLAPFVKVLDQKFGIIKGTMTTTHSYTGDQRLLDASHRDLRRARAACLNIVPTSTGAAKAVALVLPNLKGKLNGIALRVPTPNVSVVDLVVQVSKKTFAEEVNAAFRESADNELKGILSVCDEPLVSIDFRCTDVSSTIDSSLTMVMGDDMVKVIAWYDNEWGYSQRVVDLADIVANKWQ
chain 2: KLKVAINGFGRIGRNFLRCWHGRKDSPLDVVVVNDSGGVKSATHLLKYDSILGTFKADVKIIDNETFSIDGKPIKVVSNRDPLKLPWAELGIDIVIEGTGVFVDGPGAGKHIQAGAKKVIITAPAKGSDIPTYVVGVNEKDYGHDVANIISNASCTTNCLAPFVKVLDEELGIVKGTMTTTHSYTGDQRLLDASHRDLRRARAAALNIVPTSTGAAKAVSLVLPQLKGKLNGIALRVPTPNVSVVDLVVNIEKVGVTAEDVNNAFRKAAAGPLKGVLDVCDIPLVSVDFRCSDFSSTIDSSLTMVMGGDMVKVVAWYDNEWGYSQRVVDLADLVANKWPGLEGSVASGDPLEDFCKDNPADEECKLYE
stoichiometry N [2]: 2 A2B2 tetramers per oligomer and 4 A2B2 tetramers per oligomer and 5 A2B2 tetramers per oligomer

binding result [3]: binds
B2: photosynthetic GAPDH A-subunit from spinach (natural protein, UniProt P19866 66-401, looked up)
chain: KLKVAINGFGRIGRNFLRCWHGRKDSPLDVVVINDTGGVKQASHLLKYDSILGTFDADVKTAGDSAISVDGKVIKVVSDRNPVNLPWGDMGIDLVIEGTGVFVDRDGAGKHLQAGAKKVLITAPGKGDIPTYVVGVNEEGYTHADTIISNASCTTNCLAPFVKVLDQKFGIIKGTMTTTHSYTGDQRLLDASHRDLRRARAACLNIVPTSTGAAKAVALVLPNLKGKLNGIALRVPTPNVSVVDLVVQVSKKTFAEEVNAAFRESADNELKGILSVCDEPLVSIDFRCTDVSSTIDSSLTMVMGDDMVKVIAWYDNEWGYSQRVVDLADIVANKWQ

Molecule: B3
binding result (cryo-EM structure): binds
